Measurements as given in IntAct's records for PubMed 24165923.

B1: R-spondin-1 (Homo sapiens), Q2MKA7 (parent)
chain: MRLGLCVVALVLSWTHLTISSRGIKGKRQRRISAEGSQACAKGCELCSEVNGCLKCSPKLFILLERNDIRQVGVCLPSCPPGYFDARNPDMNKCIKCKIEHCEACFSHNFCTKCKEGLYLHKGRCYPACPEGSSAANGTMECSSPAQCEMSEWSPWGPCSKKQQLCGFRRGSEERTRRVLHAPVGDHAACSDTKETRRCTVRRVPCPEGQKRRKGGQGRRENANRNLARKESKEAGAGSRRRKGQQQQQQQGTVGPLTSAGPA

Variants of: B1
Conditions: with znrf3_human ZNRF3, Q9ULT6
Chain of znrf3_human ZNRF3, Q9ULT6 (Q9ULT6 whole entry): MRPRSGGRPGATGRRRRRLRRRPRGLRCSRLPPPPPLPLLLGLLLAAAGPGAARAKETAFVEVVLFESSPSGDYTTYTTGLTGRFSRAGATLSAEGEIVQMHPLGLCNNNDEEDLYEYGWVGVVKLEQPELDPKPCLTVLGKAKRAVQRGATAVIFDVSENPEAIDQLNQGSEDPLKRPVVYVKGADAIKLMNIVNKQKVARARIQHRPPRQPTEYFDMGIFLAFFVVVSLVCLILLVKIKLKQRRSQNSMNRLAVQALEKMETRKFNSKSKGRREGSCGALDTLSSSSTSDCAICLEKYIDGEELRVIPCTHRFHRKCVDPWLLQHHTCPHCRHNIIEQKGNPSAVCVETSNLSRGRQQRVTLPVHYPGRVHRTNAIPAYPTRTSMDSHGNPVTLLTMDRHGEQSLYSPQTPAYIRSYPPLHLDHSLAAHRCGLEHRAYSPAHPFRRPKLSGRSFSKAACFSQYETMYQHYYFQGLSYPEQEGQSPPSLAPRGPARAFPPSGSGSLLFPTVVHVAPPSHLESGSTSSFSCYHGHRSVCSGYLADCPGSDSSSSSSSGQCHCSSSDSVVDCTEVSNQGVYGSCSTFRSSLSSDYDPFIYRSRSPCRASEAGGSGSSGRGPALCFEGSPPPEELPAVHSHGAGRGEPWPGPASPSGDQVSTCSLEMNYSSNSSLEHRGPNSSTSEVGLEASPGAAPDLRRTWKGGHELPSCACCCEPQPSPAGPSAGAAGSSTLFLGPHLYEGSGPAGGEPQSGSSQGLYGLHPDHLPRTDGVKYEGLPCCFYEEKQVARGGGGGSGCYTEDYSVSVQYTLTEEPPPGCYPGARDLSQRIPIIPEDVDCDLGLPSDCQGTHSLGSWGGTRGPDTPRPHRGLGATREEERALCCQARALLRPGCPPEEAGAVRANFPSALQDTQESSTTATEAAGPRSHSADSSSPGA

Variant | effect of a mutation on the interaction
R66A | disrupting interaction
